Target: microtubules assembled from porcine brain tubulin (porcine) (UniProt P02550)
Sequence (P02550 whole entry, chain 1 of 2): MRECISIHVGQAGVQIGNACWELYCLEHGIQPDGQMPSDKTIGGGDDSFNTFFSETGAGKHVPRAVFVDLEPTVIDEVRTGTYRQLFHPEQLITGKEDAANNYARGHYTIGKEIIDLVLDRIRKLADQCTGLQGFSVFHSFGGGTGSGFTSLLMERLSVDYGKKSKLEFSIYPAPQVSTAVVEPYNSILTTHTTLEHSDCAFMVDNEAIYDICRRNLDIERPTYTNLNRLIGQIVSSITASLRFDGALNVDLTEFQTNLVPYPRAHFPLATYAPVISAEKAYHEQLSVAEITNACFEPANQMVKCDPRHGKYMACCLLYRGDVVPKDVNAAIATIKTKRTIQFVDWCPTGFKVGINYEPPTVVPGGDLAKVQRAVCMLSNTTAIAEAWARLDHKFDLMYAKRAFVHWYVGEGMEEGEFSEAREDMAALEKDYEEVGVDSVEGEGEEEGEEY
Sequence (P02554 whole entry, chain 2 of 2, further chain): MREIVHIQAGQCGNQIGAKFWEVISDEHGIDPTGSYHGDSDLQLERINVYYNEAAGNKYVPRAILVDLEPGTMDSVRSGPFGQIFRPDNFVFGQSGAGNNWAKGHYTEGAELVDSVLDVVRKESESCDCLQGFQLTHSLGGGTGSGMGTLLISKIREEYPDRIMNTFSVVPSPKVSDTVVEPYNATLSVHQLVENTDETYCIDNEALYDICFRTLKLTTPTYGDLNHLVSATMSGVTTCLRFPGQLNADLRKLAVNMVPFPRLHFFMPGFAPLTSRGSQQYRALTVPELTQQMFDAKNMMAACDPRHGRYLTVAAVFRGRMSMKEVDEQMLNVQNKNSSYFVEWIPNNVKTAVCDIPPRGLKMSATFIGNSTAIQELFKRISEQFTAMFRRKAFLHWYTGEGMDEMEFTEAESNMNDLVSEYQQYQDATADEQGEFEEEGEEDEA

glutamylation activity with taxol-stabilized MTs, decrease against WT [% decrease] | glutamylation activity with taxol-stabilized MTs, normalized to WT | Substance
47 |  | TTLL6 with R415 and R418 mutated to alanine (from UniProt A4Q9E8 51-502) (enzyme)
 | 55 % of WT | TTLL6 with R403 and R407 mutated to alanine (from UniProt A4Q9E8 51-502) (enzyme)

— publication PMC11529724
